Results on 50 sequences are retold here after the domain aggregation screens of Martell et al. (2025).

A short description of this series: soluble fraction after stress (log2 fold change); higher = more stays soluble; pooled small domains, quantitative proteomics. The following applies: stress: 50 degC. The method, boiled down:
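Custom libraries of small protein domains were pooled and measured in a high-throughput format, with quantitative proteomics as the read-out. Each library was stressed at 50°C. The value is the log2 fold change in the amount of each protein that stays soluble after stress, used as a measure of aggregation propensity; higher values mean more of the protein stays soluble.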
In the case of “HMGPEAFPVPYIVDIELDRAIYVIEQSGFIVGQKLEANDDNVPRGFVISQNPAAGTKLGPNSVVDLVISSG”, the “soluble fraction (log2)” value was -1.02.
Next, “HMGPEQLIGKTGIAASELAPRGEVKIEGQIWRAETVGDHVKQGEPVEVVSREGLILRVKPKHPQTRG”: 0.214.
In the case of “HMGPEVQLAYSEFLAKVKVGEVNDVMVKGNEIHGHFSDGRTFSTYSPNDPDLVEKLNKNKVMIKAAPP” it was 0.0475.
In the case of “HMGPFYFDQDGKAYSGLLNRNGEILYFADPFNAAVKNTTKTIDGKTYTFNQNGRATSIDGIPLEPP” it was 0.142.
Turning to “HMGPGDTTIPTTIIGMSLEEARNELSAAGLLVARIIPVDSNSRTGTVLKITPDAGSIIKAGSGVELEIAS”, the “soluble fraction (log2)” value is 0.0765.
In the case of “HMGPGFVGGSVLSGGNRGEGDPVANAQVFITDMDDNVVAFTKTDAEGNFDMTNLAYGDYKMYVDILNK”, the “soluble fraction (log2)” value was -0.0166.
For “HMGPGSYVVNVKPYAYVSINGRDYGRTPVGPIRLDPGTYKVVFTHEHRPSFSRTIVVEAGRETFETFPYPG”, the “soluble fraction (log2)” value was -0.29.
On to “HMGPLPIDSRYFNNLVPYTGITHVNSVIPEAERHIGLTVVVKTGSTYSEYWYRTGVTNSSLELKT”, for which the “soluble fraction (log2)” value is -0.634.
“HMGPLYARVKAIVLARIMGGDWPPGTALPAEMELARALGVSQGTVRKALDALTAEQVVVRRQGSGTYVAE”: the “soluble fraction (log2)” value was -1.04.
In the case of “HMGPNYYDILEIPTDASPSEITQAFRKKALEWHPDKNPNNLEEATSRFIEIVEAYRVLSSKDSKLQYDTG” it was 0.0242; in that of “HMGPSVGMTVGEMERDLIFRTLETVGDNRTKAADMLGISIRTLRNKLNEYREAGFEWPRKAG”, 0.00867.
Take “HMGQAVTMLKAGRLLANAKGTGAPVRSLEPGMLLYPTGVKEGTMWEVEDEMGNKGWVNSTLMETA”: the “soluble fraction (log2)” value is -0.212.
Next, “HMGQAVTVPELKGLSFDEAIEKLDDAGLKYEVVDSNYVEDMKPGTVFETLPEAGSRVKPRRIVFLTINAF”: -0.319.
Next, “HMGQDTTIVVRRGESLLGIAARLLPATDFYTTGELAEGIRTASGMENDRLIPGQTLRVPLNSG”: -0.0889; “HMGQGEISVPRLEGLSLRETSELLGLFGLRLEAAGSGIALSQNPPAGARVKAGDVIQVDFGEPGN”: 0.0136; “HMGQHSAELKLHPQDLGQVTISMKVEDNQAQLQMVSGHGHVRAALEAALPQLRSQLADSGIQLTQSSIS”: -0.146.
Turning to “HMGQISDEETLKTVASRIIDANPDEARKYRSGKTGLLGFFVGQVMKATQGEANPKLASRIVKELLE”, the “soluble fraction (log2)” value is -0.0262.
In the case of “HMGQLIVTIPNFERRPAEQAIQKLEELGLVPEEKQIYHDDIPAGSVIYTDPSKDSQVNAGTKVYVYVSLG”, the “soluble fraction (log2)” value was -0.116.
“HMGQMGHAVVAKTDLAVGTPLTRDLVAVREVPVEWLHSSAITPEQFERAAGAVLAQPARGGEPLVWSQLEE”: the “soluble fraction (log2)” value worked out at 0.0906.
Next, “HMGQPRPLTAEDFDFLSDDEIAEMRKALSNGEMLRLRELIAQIGEKRPFLAERLLVLAKQYNYEDLSRLLE”: -0.374.
Next, “HMGQQPPVTEIYKNHDGNKDGLLEAGEVTGSRYARQFPRWDVNGDQKVSPQEVIAFRKRFGIAADGTLL”: -0.0225; “HMGQQTVEPLSRRELEVLSLLAKGLSNQQIADRLVISVRTVKKHVENIHGKLGVQSRTQAVARARELGLV”: 0.122; “HMGQTYTITINPTPADAKVIIDGVATNSVEAIDGRTLIWSVSKPGYLTKSGNYTVTGKNETLNIVLKEDPD”: 0.087.
With “HMGQVLEGVFRRKANGKNAFIPDGGGEPILVAERNSAHAMDGDRVKATLLARRKHHVREAQVTEILKRSSK”, the “soluble fraction (log2)” value was -0.0521.
With “HMGQVSDENQLNKVIDEVIKNYPIQVEQFKAGKEPILQFLKGMVMKATEGSADPAVAEKLLRKKL”, the “soluble fraction (log2)” value amounted to 0.237.
On to “HMGQYLDAATVAAVYHAYHARNWTQATLAKELKVARPTLSNVLNGREAPSVELAARIRAFLGSPEP”, for which the “soluble fraction (log2)” value was -1.66.
In the case of “HMGRAAEETETFRTQGELDARIKELQGQMRDAAANLEFERAAGLRDTLKRLRTRGLGLSASP” it was 0.0346.
In the case of “HMGRENGTVKWFNTSKGFGFITRDDGGDVFVHFRSIQGEGHRALQEGQRVSYVVANRDKGLQAEDVTILN” it was 0.131.
In the case of “HMGRKRLADYGLNDTEQKIVRKIADGLSNREIAQALYLSEGTVKNYITDILGKLELRDRTQIAIFYLREIG” it was -0.0293; in that of “HMGRLTTKIVLYDRIENIVPERRKELVADIEKRIGVKVEVLEIGHVDFVRDAAWLKVSYYLAPGE”, -1.06; in that of “HMGRNSTPKEPLKKFEVSPITEKEVRILDGRFGPYITDGATNVTVPKTITIEEITFERALDMLAEKAAKGP”, 0.0252.
Turning to “HMGRPQISDELRNAIIEVAKDNRDWGYIRIQGQLKYLGYRVSTATIGKVLKKAGLEPQPDRRRK”, the “soluble fraction (log2)” value is -0.264.
With “HMGRPWRIGDVVNVSRPTGDGGGFTKGLITRIYPTTVQVTWNPDLQHARPWTTMEKKQYLIFVYHDDE”, the “soluble fraction (log2)” value is -2.86.
With “HMGRQTITLPDFSGQDLEQVKARLTEWGLVPEEKSVFSDSVPLGSVVRTVPAEGDEVSVGDTVTVYKSLGR”, the “soluble fraction (log2)” value was 0.0656.
In the case of “HMGRRDLSWQPAAGGVSIDGLKAGEAWTLFGLNGRILKQGYAPEGQMSLAVNAGLFVLRGAESGVIRIAVA” it was -1.25; in that of “HMGRSYTIKSGDTLWAIATRYYGNGAQYSKIYNANKGTIESVAKSRGFRSSQNGHWIFPGTSITI”, -0.207; in that of “HMGRTITVGIAEDADIKDIAKMLEEKGLISDYRLFVVQELLSAQHDKIKPGIYDLSTDMKAEEMLEILAG”, -0.541.
Next, “HMGRTKEEIFNILKERIVTLQYEPGKILNEIELSEEFEVSRTPIRTVFQQLEAVKLVSIVPRYGVQVA”: -1.27; “HMGRYATVPDVVGSTPEVARELIRSEGLRYVLSEETVYSDSDTGTVGRTDPESGTRMSADDEVVVYLS”: 0.0355; “HMGRYVIQIASFSSKNNAIEAADKLGGFVVQSGRFYRVRTGPFATRGEADAALASARRVGYRDAFIDTS”: -0.531.
In the case of “HMGSAIAHAIASLPDRYRELLLLKYDTGYSEKEIAQLLGMTEANVKKTIQRAKAKLQTLLDEMEA” it was -0.81; in that of “HMGSAKAQLYDLMNAHQVTRNQIQDIVAEKGYFPAGTPIENYPDDFVKGVLVGAWDQVHKAILDKEI”, 0.0946; in that of “HMGSEISLNAFNIPKGSVSVTAGGTKLVENQDYTVDYTLGRIKILNEGILNSGVPIQVNFENNTLFN”, 0.0829.
“HMGSEYILTIIPTPADATVFINGVKKNSASGVNGQILSWEVTKEGYIPQSGTFTINGKNETIEVVLQPQT”: the “soluble fraction (log2)” value is 0.00105.
As for “HMGSFFSKATAPVRTTGGDGLYKHGSIWFNTSTGRLFVYIPDDRYTGLLDTHNGDIGYWVDVS”, the “soluble fraction (log2)” value is -2.2.
Next, “HMGSFGAMLKRNRKLAGLTQEQLAEKLDVSTVAVQNWESGKNQIRSEKLTKLSYLFNIPLETLIHEMLIS”: -0.951; “HMGSFISADEALAKALSHAGLDQSAIRELEMDSELDDDVPHYSIDFKSGNLEYEYEISATDGSVLKFEQD”: 0.105; “HMGSKEQELVILNNILERQLQAINLQKSAAGPMVNLRNVHNTLTKLVEAAGLKNVETYFTDPVIGAAQ”: 0.0108.
As for “HMGSNTLEDAYKVLGITPDATDDEVRKAYKKMVIQHHPDKVANLGEDVKKAATIKLQEINNAKEIIFKARN”, the “soluble fraction (log2)” value was 0.139.
Next, “HMGSQSYVAIVNERFKESDIVELGGSVGSRTGDIITLHFRNSSPNELKNITGIVYLQVANKVTPKL”: -0.612.
